This passage reports Kd results from patent publication CN108178799A (SHENZHEN INNOVA NANOBODI CO LTD, dated 2018).

The chains are these.
B1: 纳米抗体VHH-CA125-2H7 (VHH)
VHH: ESGGGLVQAGGSLRLSCERSDAPHSPYTMGWFRQAPGKDREFVATITWSGGTTLYADSVKGRFTISRGIAKNTAYLQMNTLKPEDTAVYYCAVGLGGGAYREDHQYDYWGQGT
notes: Alpaca VHH expressed from pMES4 in E. coli BL21(DE3) periplasm; not shown: residues and tag from the pMES4 vector (protein purified on Ni-NTA / IMAC)
B2: 纳米抗体VHH-CA125-4C1 (VHH)
VHH: ESGGGLVQAGGSLRLSCAASGNTFNINAMGWYRQAPGKQRELVATITSGGSTNYADSVKGRFTISRDNAKNTVFLQMNSLKPEDTAVYYCNAVQTRLPNSPDRYEYDYWGQGT
notes: as for B1
B3: 纳米抗体VHH-CA125-4H10 (VHH)
VHH: ESGGGLVQPGGSLRLSCAASEFTLEHYAIGWFRQAPGKEREGVGCISSSQENTYVEDSAKGRFTISRDNVKNTVYLQMNSLKPEDTAVYYCAARRFGLCVISPGYFEVWGQGT
notes: as for B1

The target in the test is T1, CA125抗原 (purified from ascites of ovarian cancer patients) (human (ascites of ovarian cancer …, UniProt Q8WXI7 1-14451)).
T1 construct: Natural shed antigen, heterogeneous fragments; also called CA125糖类抗原
Briefly: SPR, Biacore T100, 1:1 binding fit. For orientation: Surface plasmon resonance follows binding to a sensor surface in real time, without labels.
Turning to B1, binding was characterised by a dissociation constant (Kd) of 0.718 nM.
Consider B2, for which binding was put at a Kd of 0.635 nM.
B3: the Kd – broadly, the constant that tells how readily two partners part at equilibrium – was found to be 0.285 nM.
